Reference: publication doi:10.1101/2023.01.25.525455

Experiments:
[1] = molecular target: GFP-tagged VPS35L with complete deletion of the β-hairpin (human) (UniProt Q7Z3J2); assay: co-IP
[2] = molecular target: GFP-tagged VPS35L(I761G) (human) (UniProt Q7Z3J2); assay: co-IP
Chain of GFP-tagged VPS35L(I761G) (human) (Q7Z3J2 whole entry I761G): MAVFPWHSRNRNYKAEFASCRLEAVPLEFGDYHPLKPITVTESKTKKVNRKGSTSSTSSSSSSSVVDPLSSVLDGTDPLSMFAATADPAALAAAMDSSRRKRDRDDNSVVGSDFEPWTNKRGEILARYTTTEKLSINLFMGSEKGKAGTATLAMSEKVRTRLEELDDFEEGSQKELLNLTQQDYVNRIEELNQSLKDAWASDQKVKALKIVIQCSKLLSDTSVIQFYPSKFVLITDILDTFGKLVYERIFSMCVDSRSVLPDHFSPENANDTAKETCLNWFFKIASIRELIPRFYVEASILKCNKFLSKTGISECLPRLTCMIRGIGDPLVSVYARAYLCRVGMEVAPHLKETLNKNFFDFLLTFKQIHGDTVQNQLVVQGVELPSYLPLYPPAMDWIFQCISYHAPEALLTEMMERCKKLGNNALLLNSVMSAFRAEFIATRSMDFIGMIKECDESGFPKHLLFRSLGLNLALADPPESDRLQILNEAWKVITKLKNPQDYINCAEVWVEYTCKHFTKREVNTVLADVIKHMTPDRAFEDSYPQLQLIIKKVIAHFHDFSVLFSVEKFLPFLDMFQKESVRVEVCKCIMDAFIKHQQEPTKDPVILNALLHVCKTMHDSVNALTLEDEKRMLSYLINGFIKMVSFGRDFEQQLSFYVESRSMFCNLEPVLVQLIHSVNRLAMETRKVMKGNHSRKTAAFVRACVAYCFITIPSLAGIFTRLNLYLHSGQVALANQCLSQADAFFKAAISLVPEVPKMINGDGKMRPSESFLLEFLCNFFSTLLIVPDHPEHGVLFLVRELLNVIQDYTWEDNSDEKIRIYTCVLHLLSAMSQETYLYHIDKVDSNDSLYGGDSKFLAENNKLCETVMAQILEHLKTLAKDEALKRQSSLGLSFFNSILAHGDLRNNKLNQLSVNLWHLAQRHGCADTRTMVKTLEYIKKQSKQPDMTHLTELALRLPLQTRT

Chain of GFP-tagged VPS35L with complete deletion of the β-hairpin (human) (Q7Z3J2 whole entry, stated change not applied): as the sequence (Q7Z3J2 whole entry I761G) above, with G761I counted along it

percent reduction in binding (against wild type) [1]: > 50%
percent reduction in binding (against wild type) [2]: > 50%
Substance: VPS29 (endogenous, HEK293T) (from UniProt Q9UBQ0 1-182) (natural protein)
